Measured values taken from the supplement of paper PMC6757056.
± gives the standard deviation of the averaged measurements.

B1: library; a variant is named by its letters at N, in order (parent)
chain: GCUGUCACCGAGAAACUGUGAAGUAUAUCUUAAACCUGGGCACUUAAAAGAUAUAUGGAGUUAGUAGUGCAACCUGCUCGGUCUGAUGAGUCCNNNNNNGGACGAAACAGC

Experiments:
[1] = variants of: B1; test: normalized RNA/DNA level without ligand (relative to sTRSVctl = 100) (log10 (% of sTRSVctl)); HEK293T; ligand: cyclic di-GMP (c-di-GMP-II aptamer); higher = less ribozyme self-cleavage, higher mRNA level; conditions: reporter: mCherry (pCS4076), ligand present: no
In short: (§1)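 Only sequences with at least 100 DNA reads were analyzed, from HEK293T cells transfected with 4 µg per 6-well well of ribozyme switch library plasmids 72 h before RNA extraction with EDTA. Any ligand was added 1 h before transfection. RNA level was defined as RNA over DNA reads, normalized to a spiked-in non-cleaving sequence or to the top sequences, then scaled and log-transformed. The top set was 25 sequences, and the scaling was ×100 followed by log10.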

[2] = variants of: B1; test: normalized RNA/DNA level with ligand (relative to sTRSVctl = 100) (log10 (% of sTRSVctl)); HEK293T; ligand: cyclic di-GMP (c-di-GMP-II aptamer); ligand concentration (+) RNA-Seq: 1 mM; higher = less ribozyme self-cleavage, higher mRNA level; conditions: reporter: mCherry (pCS4076), ligand present: yes
In short: as §1

Variant | normalized RNA/DNA level without ligand (log10) [1] | normalized RNA/DNA level with ligand (log10) [2]
UGCGGU | 1.63 ± 0.035 | 1.8 ± 0.12
UGCGGG | 1.81 ± 0.045 | 1.92 ± 0.067
CGCUGG | 1.67 ± 0.039 | 1.78 ± 0.086
CGCUGC | 1.806 ± 0.0025 | 1.9 ± 0.092
UGCGCC | 1.79 ± 0.046 | 1.92 ± 0.094
UGCGCG | 1.821 ± 0.0063 | 1.92 ± 0.085
UGCGCA | 1.711 ± 0.014 | 1.86 ± 0.061
UGCGCU | 1.72 ± 0.032 | 1.89 ± 0.11
UGCUGG | 1.696 ± 0.014 | 1.87 ± 0.15
UGCUGU | 1.748 ± 0.01 | 1.87 ± 0.1
UGCUGA | 1.6 ± 0.017 | 1.8 ± 0.085
UGCUGC | 1.76 ± 0.025 | 1.92 ± 0.1
GGCCGC | 1.71 ± 0.03 | 1.84 ± 0.097
CGGAGA | 1.32 ± 0.11 | 1.55 ± 0.13
CGGAGU | 1.63 ± 0.03 | 1.8 ± 0.1
CGGAGG | 1.623 ± 0.014 | 1.82 ± 0.12
CGCCUG | 1.74 ± 0.036 | 1.82 ± 0.1
AGCCCC | 1.81 ± 0.031 | 1.92 ± 0.12
AGCCCU | 1.77 ± 0.047 | 1.88 ± 0.12
AGCCCA | 1.84 ± 0.046 | 1.92 ± 0.11
AGCGGG | 1.76 ± 0.043 | 1.9 ± 0.083
AGCGGA | 1.52 ± 0.056 | 1.67 ± 0.086
AGCGGC | 1.731 ± 0.0051 | 1.87 ± 0.074
GGCGCA | 1.86 ± 0.064 | 1.92 ± 0.023
GGCGCG | 1.72 ± 0.034 | 1.83 ± 0.19
GGCGCC | 1.79 ± 0.041 | 1.84 ± 0.083
AGCUGA | 1.58 ± 0.16 | 1.72 ± 0.067
AGCUGU | 1.667 ± 0.01 | 1.8 ± 0.073
AGCUGG | 1.64 ± 0.043 | 1.81 ± 0.12
